This sample holds only a part of the variants without activity.
Experiments:
[1] = test system: biotinyl-Leu-oxazolone; experiment: self-aminoacylation, catalytic enhancement (BLO) (fold over background); higher = more active; k-Seq, kA / k0A0; sequences stand for … in GGGAAUGGAUCCACAUCUACGAAUUC…UUCACUGCAGACUUGACGAAGCUG
Method in brief: (§1)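 Mutagenized RNA pools with a 21-nt variable region (0.43 μM) reacted with each biotinyl-aminoacyl-oxazolone at 2–1250 μM. Reactions ran in 50 μL HEPES/NaCl/KCl/MgCl2/CaCl2 buffer with 5% acetonitrile, pH 6.9–7.0, for 90 minutes at room temperature. Streptavidin-captured RNA was quantified by triplicate qPCR and Illumina sequencing, and per-sequence fraction reacted was fit to a pseudo-first-order model with 1000 bootstraps. Catalytic enhancement is median kA divided by the uncatalyzed rate, the low-activity peak of a bimodal Gaussian fit.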

[2] = test system: biotinyl-Met-oxazolone; experiment: self-aminoacylation, catalytic enhancement (BMO) (fold over background); higher = more active; k-Seq, kA / k0A0; sequences stand for … in GGGAAUGGAUCCACAUCUACGAAUUC…UUCACUGCAGACUUGACGAAGCUG
Method in brief: as §1

[3] = test system: biotinyl-Trp-oxazolone; experiment: self-aminoacylation, catalytic enhancement (BWO) (fold over background); higher = more active; k-Seq, kA / k0A0; sequences stand for … in GGGAAUGGAUCCACAUCUACGAAUUC…UUCACUGCAGACUUGACGAAGCUG
Method in brief: as §1

[4] = test system: biotinyl-Val-oxazolone; experiment: self-aminoacylation, catalytic enhancement (BVO) (fold over background); higher = more active; k-Seq, kA / k0A0; sequences stand for … in GGGAAUGGAUCCACAUCUACGAAUUC…UUCACUGCAGACUUGACGAAGCUG
Method in brief: as §1

[5] = test system: biotinyl-Phe-oxazolone; experiment: self-aminoacylation, catalytic enhancement (BFO) (fold over background); higher = more active; k-Seq, kA / k0A0; sequences stand for … in GGGAAUGGAUCCACAUCUACGAAUUC…UUCACUGCAGACUUGACGAAGCUG
Method in brief: as §1

[6] = test system: biotinyl-Ile-oxazolone; experiment: self-aminoacylation, catalytic enhancement (BIO) (fold over background); higher = more active; k-Seq, kA / k0A0; sequences stand for … in GGGAAUGGAUCCACAUCUACGAAUUC…UUCACUGCAGACUUGACGAAGCUG
Method in brief: as §1

Sequence | self-aminoacylation [1] | self-aminoacylation [2] | self-aminoacylation [3] | self-aminoacylation [4] | self-aminoacylation [5] | self-aminoacylation [6]
AAGCUUGCCAAUAGUCGCAAG [Fam3.1 aminoacylation ribozyme variant] | 2.23 | 2.48 | 3.62 | 2.42 | 3.44 | 2.31
GUUACCCUGGUCUUCGAGUGA [Fam2.1 aminoacylation ribozyme variant] | 8.79 | 8.47 | 10.1 | 5.01 | 50.7 | 4.45
CCACACUUCAAGCAAACGGUC [Fam1B.1 aminoacylation ribozyme variant] | 0.535 | 0.511 | 0.599 | 0.755 | 1.02 | 0.624
CCAGACUUCAAGCAAUCGUUC [Fam1B.1 aminoacylation ribozyme variant] | 0.764 | 0.78 | 0.853 | 0.849 | 1.08 | 1.06
CCACUCUUCAAGCACUCGGUC [Fam1B.1 aminoacylation ribozyme variant] | 1.04 | 1.15 | 0.816 | 0.928 | 0.56 | 1.02
ACUACCCUGGUCGUCGAGUGA [Fam2.1 aminoacylation ribozyme variant] | 1.95 | 1.49 | 0.701 | 1.19 | 6.66 | 1.17
AUUCACCUACGUCAUAGGGUG [Fam2.2 aminoacylation ribozyme variant] | 1.02 | 1.34 | 0.634 | 0.933 | 0.864 | 0.915
AAGUCAGCUAAUAGUCGCAAG [Fam3.1 aminoacylation ribozyme variant] | 2.22 | 1.83 | 3.06 | 2 | 5.28 | 1.94
AAUCACCUAGGUCAUCGGGCG [Fam2.2 aminoacylation ribozyme variant] | 4.1 | 4.05 | 3.94 | 2.77 | 7.85 | 3.35
ACUCACCUAGGUCUUCGGGUG [Fam2.2 aminoacylation ribozyme variant] | 6.01 | 4.6 | 6.33 | 4.96 | 29.7 | 4.2
AUUCACCUAAGUCAUCGGGCG [Fam2.2 aminoacylation ribozyme variant] | 4.95 | 2.83 | 2.51 | 2.53 | 9.59 | 2.63
CUACUUCAGACGAUCGGUCUG [Fam1A.1 aminoacylation ribozyme variant] | 0.954 | 1.24 | 0.788 | 1.01 | 0.484 | 0.727
CCACUACAAACAAUCGGUCUG [Fam1A.1 aminoacylation ribozyme variant] | 1.14 | 0.764 | 0.734 | 1.12 | 1.38 | 1.02
AUUCACCUAGGUCCUCUGGUG [Fam2.2 aminoacylation ribozyme variant] | 5.9 | 4.3 | 4.56 | 2.58 | 31.1 | 2.57
CGUACCCUGGUCAUCGAGUGA [Fam2.1 aminoacylation ribozyme variant] | 9.81 | 8.76 | 10.9 | 5.62 | 10.1 | 4.66
AUUACCCGGGUCAUCGAGUAA [Fam2.1 aminoacylation ribozyme variant] | 1.54 | 1.91 | 3.56 | 1.58 | 8.59 | 2.05
AAGUUUGCUAAUAGUAUCAAG [Fam3.1 aminoacylation ribozyme variant] | 0.714 | 1.22 | 0.998 | 0.928 | 1.64 | 1
ACUACCCUGGUCCUCGAGUGA [Fam2.1 aminoacylation ribozyme variant] | 3.84 | 4.59 | 4.3 | 2.25 | 17.6 | 2.6
UUUACCCUGGUCACCGAGUGA [Fam2.1 aminoacylation ribozyme variant] | 7.47 | 7.62 | 8 | 4.12 | 44.3 | 3.3
CCGCACUUCAAGCAAUCGUUC [Fam1B.1 aminoacylation ribozyme variant] | 0.688 | 0.742 | 0.659 | 0.944 | 1.26 | 0.8
AUACACCUAGGUCAUCGGGUU [Fam2.2 aminoacylation ribozyme variant] | 2.79 | 2.15 | 2.69 | 2.14 | 1.76 | 2.4
UAGUUUGCUAAUCGUCGCAAG [Fam3.1 aminoacylation ribozyme variant] | 1.11 | 1.51 | 1.59 | 1.31 | 1.65 | 1.62
AUUACCCGGGUCUUCGAGUGA [Fam2.1 aminoacylation ribozyme variant] | 8.21 | 7.15 | 8.46 | 4.57 | 44.4 | 4.5
AUUCACCUAGAUCAUCGCGUG [Fam2.2 aminoacylation ribozyme variant] | 8.58 | 5.82 | 5.99 | 3.69 | 48.1 | 3.85
UAGUUUGCUAGUAGUCGCAAG [Fam3.1 aminoacylation ribozyme variant] | 1.1 | 1.17 | 0.854 | 0.974 | 1.53 | 1.09
CUUGACCUAGGUCAUCGGGUG [Fam2.2 aminoacylation ribozyme variant] | 4.42 | 3.39 | 5.2 | 3.87 | 23.2 | 3.43

Sequence | self-aminoacylation [1] | self-aminoacylation [2] | self-aminoacylation [3] | self-aminoacylation [4] | self-aminoacylation [5] | self-aminoacylation [6]
CCACACUUCAAGAAAGCGGUC [Fam1B.1 aminoacylation ribozyme variant] | 0.784 | 0.66 | 0.407 | 0.716 | 0.498 | 0.839
CAGUUUGCUAAUAGUCACAAG [Fam3.1 aminoacylation ribozyme variant] | 1.11 | 1.04 | 1.3 | 0.952 | 2.59 | 1.04
AAGUUUGCUGCUAGUCGCAAG [Fam3.1 aminoacylation ribozyme variant] | 1.3 | 1.57 | 1.19 | 1.31 | 2.64 | 1.21
CCAUACUUCCAGCAAUCGGUC [Fam1B.1 aminoacylation ribozyme variant] | 1.1 | 1.06 | 0.815 | 1.39 | 0.952 | 1.45
AUUCAGCUAGGUCAUCAGGUG [Fam2.2 aminoacylation ribozyme variant] | 2.39 | 2.38 | 2.09 | 2.04 | 8.1 | 1.63
AUUCACCUAGGUAAUAGGGUG [Fam2.2 aminoacylation ribozyme variant] | 5.63 | 4.95 | 4.25 | 2.43 | 22 | 2.7
CUACUUCAAGCAAUCGGUCUU [Fam1A.1 aminoacylation ribozyme variant] | 0.97 | 0.87 | 4.63 | 1.06 | 6.92 | 1.07
AUUCUCCUGGUCAUCGAGUGA [Fam2.1 aminoacylation ribozyme variant] | 6.5 | 6.14 | 7.91 | 3.89 | 33.7 | 3.67
UCACAGUUCAAGCAAUCGGUC [Fam1B.1 aminoacylation ribozyme variant] | 1.16 | 1.01 | 3.12 | 0.999 | 4.16 | 1.05
AAGUUUGCUAAUAGUCGCUCG [Fam3.1 aminoacylation ribozyme variant] | 0.647 | 0.815 | 0.853 | 0.657 | 0.809 | 0.706
CUACAUCAAACCAUCGGUCUG [Fam1A.1 aminoacylation ribozyme variant] | 0.889 | 0.791 | 0.6 | 0.932 | 1.04 | 0.834
ACUACCCUGGACAUCGAGUGA [Fam2.1 aminoacylation ribozyme variant] | 6.83 | 7.03 | 7.37 | 2.92 | 20.6 | 2.55
GUACUUCAAACAAUCGGCCUG [Fam1A.1 aminoacylation ribozyme variant] | 7.02 | 4.06 | 89.6 | 4.17 | 272 | 4.51
ACUCACCUAGGUCAUAGGGUG [Fam2.2 aminoacylation ribozyme variant] | 1.39 | 1.57 | 1.58 | 1.36 | 1.46 | 1.31
CUACUUCAAACAAUCGGUGUC [Fam1A.1 aminoacylation ribozyme variant] | 0.635 | 0.654 | 0.851 | 0.546 | 1.18 | 0.613
AUUCAGCUAGGUCCUCGGGUG [Fam2.2 aminoacylation ribozyme variant] | 9.02 | 6.2 | 6.56 | 4.46 | 55.4 | 4.67
ACACACUUCAAGCAAUCGGAC [Fam1B.1 aminoacylation ribozyme variant] | 0.979 | 0.97 | 1.43 | 1.02 | 1.42 | 1.1
CCCCACUUCAAGCCAUCGGUC [Fam1B.1 aminoacylation ribozyme variant] | 2.63 | 2.87 | 4.79 | 2.82 | 10 | 2.33
CGACACUUCAAACAAUCGGUC [Fam1B.1 aminoacylation ribozyme variant] | 1.71 | 1.31 | 12.5 | 1.64 | 22.9 | 1.23
CUACAUCAACCAAUCGGUCUG [Fam1A.1 aminoacylation ribozyme variant] | 0.554 | 0.748 | 0.796 | 0.781 | 1.44 | 0.643
AUUCCCCUGGUCAUCGAGUAA [Fam2.1 aminoacylation ribozyme variant] | 1.35 | 1.69 | 1.47 | 1.7 | 1.42 | 1.55
AUUAGACUGGUCAUCGAGUGA [Fam2.1 aminoacylation ribozyme variant] | 3.73 | 4.4 | 4.81 | 2.56 | 7.88 | 3
CCACACUUCAAGCAUUCAGUC [Fam1B.1 aminoacylation ribozyme variant] | 0.576 | 0.505 | 0.562 | 0.758 | 1.03 | 0.878
AUUCACCUAGGGCAUCCGGUG [Fam2.2 aminoacylation ribozyme variant] | 12.6 | 10.7 | 8.38 | 8.74 | 54.4 | 10.5
CUACUUCAAACAUUAGGUCUG [Fam1A.1 aminoacylation ribozyme variant] | 0.6 | 0.617 | 0.535 | 0.747 | 0.696 | 0.813

From the supplement of paper PMC9233669
